Experimental data as given in article doi:10.1101/2025.05.14.654016, “Phosphatase activity is dispensable for PRL-3-mediated oncogenesis and tumor progression” (bioRxiv, 2025).

Tests used:
Settings in all cases: both partners purified
LSSmGFP-PRL-3.C104D [1] = target: T1, LSSmGFP-PRL-3.C104D (human, UniProt O75365 1-173, C104D); assay: co-IP; in vitro, purified proteins: HA-CBS or HA-CBS-mScarlet3 (2.5 μM) on HA-Tag magnetic beads; equimolar PRL-3 or LSSmGFP-PRL3.C104D with 1 mM TCEP, pre-incubated with 50 μM test compounds or DMSO; 25 mM Tris-HCl pH 7.4, 150 mM NaCl, 1% NP-40, 5% glycerol; room temperature
T1 construct: full-length PRL-3 with C104D, joined to LSSmGFP at its N-terminus by a glycine/serine linker; also called FRET donor; source: E. coli BL21 Star DE3, purified (Ni-NTA, TEV cleavage, second Ni-NTA, Superdex 200); not shown: LSSmGFP, N-terminal, kept
T1 sequence (O75365 whole entry C104D): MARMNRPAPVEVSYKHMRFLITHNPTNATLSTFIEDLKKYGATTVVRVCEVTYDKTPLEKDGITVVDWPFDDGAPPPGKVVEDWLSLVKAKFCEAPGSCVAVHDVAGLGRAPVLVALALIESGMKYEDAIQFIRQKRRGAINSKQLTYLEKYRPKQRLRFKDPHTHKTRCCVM

[2] = target: T2, recombinant full-length human PRL-3 (human, UniProt O75365 1-173); assay: as above
T2 construct: full-length human PRL-3 cloned into pSKB3 (modified pET-28b with a TEV site); also called purified PRL-3; non-fluorescent PRL-3; source: E. coli BL21 Star DE3, purified (Ni-NTA, TEV cleavage, second Ni-NTA, Superdex 200)
T2 sequence (O75365 whole entry): as the sequence (O75365 whole entry C104D) above, with D104C counted along it

LSSmGFP-PRL-3.C104D [3] = target: T1, LSSmGFP-PRL-3.C104D; assay: FRET or BRET; in vitro FRET of purified proteins, LSSmGFP-PRL-3 C104D with increasing concentrations of HA-CBS-mScarlet3; excitation 400 nm, emission 600 nm

| Binder | binding result (LSSmGFP-PRL-3.C104D [1]) | binding result [2] | binding result (LSSmGFP-PRL-3.C104D [3]) |
| --- | --- | --- | --- |
| HA-CBS (CBS domain of CNNM3, residues Y301-D451, with an N-terminal HA tag) (domain or fragment, UniProt Q8NE01-1 301-451, looked up, also called purified CBS domain; unlabelled HA-CBS; source: E. coli BL21 Star DE3, purified (Ni-NTA, TEV cleavage, second Ni-NTA, Superdex 200); not shown: HA, N-terminal, kept) YSDLSKGVLRCRTVEDVLTPLEDCFMLDASTVLDFGVLASIMQSGHTRIPVYEEERSNIVDMLYLKDLAFVDPEDCTPLSTITRFYNHPLHFVFNDTKLDAVLEEFKRGKSHLAIVQKVNNEGEGDPFYEVLGLVTLEDVIEEIIRSEILD | binds | binds | – |
| HA-CBS-mScarlet3 (domain or fragment, UniProt Q8NE01-1 301-451, looked up, CBS domain of CNNM3, residues Y301-D451, joined to mScarlet3 at its C-terminus by a glycine/serine linker; also called FRET acceptor; source: E. coli BL21 Star DE3, purified (Ni-NTA, TEV cleavage, second Ni-NTA, Superdex 200); not shown: HA, N-terminal, kept; mScarlet3, C-terminal, kept) YSDLSKGVLRCRTVEDVLTPLEDCFMLDASTVLDFGVLASIMQSGHTRIPVYEEERSNIVDMLYLKDLAFVDPEDCTPLSTITRFYNHPLHFVFNDTKLDAVLEEFKRGKSHLAIVQKVNNEGEGDPFYEVLGLVTLEDVIEEIIRSEILD | – | binds | binds |
